From the supplement of paper PMC12042874
± gives the uncertainty stated by the source.

assay: amyloid nucleation score (Sup35N fusion, yeast selection) (log enrichment); library NNK3; higher = more nucleation; inactive = no reads after selection
In short: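 Yeast lacking psi expressed peptides of 20 random codons fused to Sup35N, received 100 μM copper sulfate for 24 hours, and were then grown for 7 days at 30°C on medium lacking adenine and uracil. Illumina sequencing of input and output plasmid inserts provided the reads. Nucleation scores are DiMSum log enrichments of output over input, centred on the mode of non-aggregating sequences. Any sequence with under 100 input reads was excluded.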

**Q.** For KLVWRERICEDGFYIKTTFL, which amyloid nucleation score is on record?
**A.** inactive

**Q.** Which amyloid nucleation score does the source give for FLSFTSRNLTYFCDCRFSLI here?
**A.** inactive

**Q.** For IRSPWTSRAVCGGADV, which amyloid nucleation score is on record?
**A.** inactive

**Q.** With WCVASILRQFPLCYFITQNP as the substance, how does the amyloid nucleation score read?
**A.** inactive

**Q.** With QSYDL as the substance, how does the amyloid nucleation score read?
**A.** inactive

**Q.** Which amyloid nucleation score does the source give for NWSTIECMYMASVVLNARFG here?
**A.** inactive

**Q.** Which amyloid nucleation score does the source give for QDPLVT here?
**A.** inactive

**Q.** Which amyloid nucleation score does the source give for ANELERYYVMCFW here?
**A.** 1.64 ± 0.099

**Q.** With WGLLRYYE as the substance, how does the amyloid nucleation score read?
**A.** 0.091 ± 0.28

**Q.** Which amyloid nucleation score does the source give for LFVFIYSVSGLLDDGVGLGG here?
**A.** inactive

**Q.** Which amyloid nucleation score does the source give for FCLPICFD here?
**A.** inactive

**Q.** With RLAFVHKMTLRMSRERYLAI as the substance, how does the amyloid nucleation score read?
**A.** -0.009 ± 0.35

**Q.** For RFSTQAENGVSIIFNLVCFN, which amyloid nucleation score is on record?
**A.** 2.8 ± 0.082

**Q.** For VTVSPWLFFVWNDGLCSARL, which amyloid nucleation score is on record?
**A.** 1.05 ± 0.096

**Q.** Which amyloid nucleation score does the source give for SLSILT here?
**A.** inactive

**Q.** For IEVYYSNRSWCLRQIRGCTG, which amyloid nucleation score is on record?
**A.** inactive

**Q.** With YVRDLGSWMT as the substance, how does the amyloid nucleation score read?
**A.** inactive

**Q.** For TDVSHGNLHGVSSWSGVPAD, which amyloid nucleation score is on record?
**A.** inactive

**Q.** With DHLWIPPWLYAPAMLWSWML as the substance, how does the amyloid nucleation score read?
**A.** inactive

**Q.** For LSVLTL, which amyloid nucleation score is on record?
**A.** inactive

**Q.** For CRFSGCNESLGWKVGSTLVM, which amyloid nucleation score is on record?
**A.** inactive

**Q.** With LSGELCSW as the substance, how does the amyloid nucleation score read?
**A.** inactive

**Q.** With IGDNCCIWMLDVHSVTLVSE as the substance, how does the amyloid nucleation score read?
**A.** 0.329 ± 0.2

**Q.** With WCQFSDLSVAFK as the substance, how does the amyloid nucleation score read?
**A.** inactive

**Q.** With PSGHV as the substance, how does the amyloid nucleation score read?
**A.** inactive

**Q.** With NTNRSLENDCIRALRQCGLV as the substance, how does the amyloid nucleation score read?
**A.** inactive

**Q.** For TMSVMPLTVQVLVGRISDGQ, which amyloid nucleation score is on record?
**A.** 1.71 ± 0.071

**Q.** For PVGRKLTTFRVNTCLLGYFK, which amyloid nucleation score is on record?
**A.** inactive

**Q.** With LDSGISNHPNFIFTHTEFIN as the substance, how does the amyloid nucleation score read?
**A.** inactive

**Q.** With LYCTWNSYNSVYAI as the substance, how does the amyloid nucleation score read?
**A.** 0.66 ± 0.2

**Q.** With ELLKPCNVCYRWYNTHALLV as the substance, how does the amyloid nucleation score read?
**A.** 0.724 ± 0.18

**Q.** With RYCVFSLT as the substance, how does the amyloid nucleation score read?
**A.** inactive

**Q.** Which amyloid nucleation score does the source give for AWYSDCRCVKPHVGRGNWCM here?
**A.** inactive

**Q.** For YLSGS, which amyloid nucleation score is on record?
**A.** inactive

**Q.** Which amyloid nucleation score does the source give for SNFGTNSIYMCTAMIPM here?
**A.** inactive

**Q.** For ICLDKITDAIYMDYNRAFSC, which amyloid nucleation score is on record?
**A.** inactive

**Q.** For VLTYTFRPSVSCSNKSKGSA, which amyloid nucleation score is on record?
**A.** 0.107 ± 0.35

**Q.** Which amyloid nucleation score does the source give for RTEKMGRDTKRYCVPHINFG here?
**A.** inactive

**Q.** Which amyloid nucleation score does the source give for MHFLVQSCFTEPRWAACRNV here?
**A.** inactive

**Q.** Which amyloid nucleation score does the source give for KVSCEYSNNKWF here?
**A.** inactive

**Q.** With AFWSH as the substance, how does the amyloid nucleation score read?
**A.** inactive

**Q.** With LVEISTVERRALIFYRCIDL as the substance, how does the amyloid nucleation score read?
**A.** -0.481 ± 1.4

**Q.** With TTFIN as the substance, how does the amyloid nucleation score read?
**A.** inactive

**Q.** For YETSVH, which amyloid nucleation score is on record?
**A.** inactive

**Q.** For RVIIRNANSILGTPQSDHNQ, which amyloid nucleation score is on record?
**A.** 0.706 ± 0.18

**Q.** With GGVHDSLNIYGFRYGLRKGV as the substance, how does the amyloid nucleation score read?
**A.** inactive

**Q.** With FIPYYRCDQMLSGILVRFFS as the substance, how does the amyloid nucleation score read?
**A.** inactive

**Q.** For KFIGFYVWVYVCHCVVIRAY, which amyloid nucleation score is on record?
**A.** inactive

**Q.** With MVKSKSTLTCNSIEPCIVIF as the substance, how does the amyloid nucleation score read?
**A.** inactive

**Q.** For VTLCVVEPDCWRIGG, which amyloid nucleation score is on record?
**A.** inactive

**Q.** Which amyloid nucleation score does the source give for VSDDLMDGSKNVLFARVEGD here?
**A.** inactive

**Q.** Which amyloid nucleation score does the source give for LLKRKLIVAFKKSMLFDFMV here?
**A.** inactive

**Q.** For PRCDYYQ, which amyloid nucleation score is on record?
**A.** inactive

**Q.** With TRLWDKD as the substance, how does the amyloid nucleation score read?
**A.** inactive

**Q.** With WLWTLYDG as the substance, how does the amyloid nucleation score read?
**A.** inactive

**Q.** Which amyloid nucleation score does the source give for EVYFKMAQPLLHWDYERMQV here?
**A.** inactive

**Q.** For HSVPLPMLYFHYNMILLMLL, which amyloid nucleation score is on record?
**A.** inactive

**Q.** For DRRYEGGRKVQSYTVARPWS, which amyloid nucleation score is on record?
**A.** inactive

**Q.** With TLGTLSICLCIFRYPGKTEA as the substance, how does the amyloid nucleation score read?
**A.** inactive

**Q.** With KSCLCLSPRGFGTDSAAVKW as the substance, how does the amyloid nucleation score read?
**A.** 0.966 ± 0.12

**Q.** For GASSIFLIVRSDGSYFSPD, which amyloid nucleation score is on record?
**A.** inactive

**Q.** With SNAFVYFRFLTFDSRFCCYY as the substance, how does the amyloid nucleation score read?
**A.** 1.56 ± 0.074

**Q.** Which amyloid nucleation score does the source give for VRLTTWLAYNLMVSSDTMFC here?
**A.** inactive

**Q.** With DTLYIASYEAVSGLRSPYER as the substance, how does the amyloid nucleation score read?
**A.** inactive

**Q.** With DCMSHLLF as the substance, how does the amyloid nucleation score read?
**A.** inactive

**Q.** Which amyloid nucleation score does the source give for NSSSNE here?
**A.** 1.01 ± 0.22

**Q.** With SLSLWESRCQITFPLVIKVE as the substance, how does the amyloid nucleation score read?
**A.** -0.017 ± 0.7

**Q.** For LWAWIIYGMWKGSFLCHVFS, which amyloid nucleation score is on record?
**A.** inactive

**Q.** Which amyloid nucleation score does the source give for GHCKCGPVGPNKRTAR here?
**A.** inactive

**Q.** With MIFSTYNNLLWLKSLQSTGG as the substance, how does the amyloid nucleation score read?
**A.** inactive

**Q.** Which amyloid nucleation score does the source give for GSWSKNMILHTLDLDCVAIV here?
**A.** inactive

**Q.** For DMIVNYCTAQRSFVSIVSIK, which amyloid nucleation score is on record?
**A.** inactive

**Q.** For IVKVLFNSFGGWWYAHGLYV, which amyloid nucleation score is on record?
**A.** inactive

**Q.** Which amyloid nucleation score does the source give for FCEPDWNEMGMDFVRCGPSL here?
**A.** inactive

**Q.** With AYFDLWLM as the substance, how does the amyloid nucleation score read?
**A.** inactive

**Q.** For FLYDVFPSPGLMMVLWFGLC, which amyloid nucleation score is on record?
**A.** inactive

**Q.** For YFLRVNGSCANIDDHGLFSW, which amyloid nucleation score is on record?
**A.** inactive

**Q.** With AGWGLLQSCRRFWEWCG as the substance, how does the amyloid nucleation score read?
**A.** inactive

**Q.** For LGFMKSFLGYSY, which amyloid nucleation score is on record?
**A.** inactive

**Q.** For VTCVVVVGVHVRRHGFQEYV, which amyloid nucleation score is on record?
**A.** inactive

**Q.** With IVSKW as the substance, how does the amyloid nucleation score read?
**A.** inactive
